From patent CN111234012A (UNIV TSINGHUA, dated 2020) come the findings set out here.

Experiment [1] deals with HBV病毒 (HepAD38细胞上清制备的HBV病毒液). Description: cell-based or functional assay.
Experiment [2] deals with T1, HBs抗原 (GENBANK ACCESSION NO: P30019.1) (乙肝病毒 (hepatitis B virus), UniProt P30019 1-226).
T1 construct: Coating antigen of the ELISA (50 ng per well); also called 乙肝病毒小膜蛋白HBs; 乙肝表面抗原
In words: ELISA, HBs antigen coated at 50 ng per well, anti-human IgG-HRP, OD450. A general note: In an ELISA, binding on a coated surface is turned into a signal by an enzyme label.

T1 sequence (P30019 whole entry, one chain of several): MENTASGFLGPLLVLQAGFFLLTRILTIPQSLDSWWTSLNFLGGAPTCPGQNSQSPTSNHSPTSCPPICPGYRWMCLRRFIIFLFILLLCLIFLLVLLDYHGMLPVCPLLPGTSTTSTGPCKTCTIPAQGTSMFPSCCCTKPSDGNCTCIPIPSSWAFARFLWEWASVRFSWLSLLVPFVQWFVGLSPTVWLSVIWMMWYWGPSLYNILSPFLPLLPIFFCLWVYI

B1: 单克隆抗体B432 (antibody, V domains shown)
VH: VQLVQSGGGVVQPGGSLRLSCAASGFIFGDYAMYWVRQAPGKGLEWVSFIGADGATIYYADSVTGRFTISRDNSKNSLFLQMNSLRTEDTAFYYCAKEMGVRDRYYYYAIDVWGQGTTVTVSS
VL: EIVLTQSPGTLSLSPGERASLSCRASQSVGGYLAWYQQTPGQAPRLLIYHSSTRATGIPARFSGSGSGTDFTLTISRLEPEDFAVYYCQQRTKWPLTFGGGTKVEIKR
notes: also called B432抗体
Take B1: the “HBV neutralisation on HepG2-NTCP cells, HBeAg in supernatant (IC50)” value in experiment [1] is 0.025 µg/mL. Besides, the binding result in experiment [2] is “binds”.
